# Data from patent US20220112288A1 (published 2022).
# Substitutions are numbered along the chain they refer to.
# B1: 75110_04G16A (antibody, V domains shown)
# VH: QVQLQESGPGLVKPSQTLSLTCTVSGDSISSGYYYWSWIRQHPGKGLEWIGYISYSGSTYYNPSLKSRLTISVNTSKNQFSLKLSSLTAADTAVYYCARDRPSNFDAFDIWGQGTMVTVSS
# VL: EIVLTQSPGTLSLSPGERATLSCRASQSVGSTYLAWYQQKPGQAPRLLIYGAFSRATGIPDRFSGSGSGTDFTLTISRLEPEDFAVYYCQQYGSSPLTFGPGTKVDIK
# notes: Tested as non-clonal AlivaMab Mouse hybridoma supernatant (chimeric: human variable regions and human kappa, mouse Fc, captured by anti-mouse IgG Fc sensors); also called ADS75110 non-clonal supernatant 04G16A
# B2: 75110_08H11A (antibody, V domains shown)
# VH: EVQLVESGGGLVQPGGSLRLSCAASGFTFSSYDMHWVRQATGKGLEWVSTIGTAGDTYYPGSVKGRFTISRENAKNSLYLQMNSLRAGDTAVYYCARGGYSYYGMDVWGQGTTVTVSS
# VL: B1 VL with R24G, G30S, F53S, Y92F, L97F
# notes: Tested as non-clonal AlivaMab Mouse hybridoma supernatant (human variable regions and human kappa, mouse Fc); also called ADS75110 non-clonal supernatant 08H11A
# B3: 75110_01G11A (antibody, V domains shown)
# VH: B2 VH with K75R, Y79F, Y100D, S101Y
# VL: B1 VL with S14F, S28N, V29T, G30Y, T32S, F53S, S54N, Y92H, S94T, L97F
# notes: Tested as non-clonal AlivaMab Mouse hybridoma supernatant (human variable regions and human kappa, mouse Fc); also called ADS75110 non-clonal supernatant 01G11A
# B4: 75110_04P06A (antibody, V domains shown)
# VH: B2 VH with S31N, Y100D, S101Y
# VL: B1 VL with G9D, V29L, G30S, T32V, F53S, S77N, A85V, L97F
# notes: Tested as non-clonal AlivaMab Mouse hybridoma supernatant (human variable regions and human kappa, mouse Fc); also called ADS75110 non-clonal supernatant 04P06A
# B5: 75110_01N04A (antibody, V domains shown)
# VH: B2 VH with S31N, Y100D, S101F, M105L
# VL: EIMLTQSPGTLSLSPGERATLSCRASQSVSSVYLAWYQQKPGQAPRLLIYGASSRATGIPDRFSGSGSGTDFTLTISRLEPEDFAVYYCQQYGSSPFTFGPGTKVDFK
# notes: Tested as non-clonal AlivaMab Mouse hybridoma supernatant (human variable regions and human kappa, mouse Fc); also called ADS75110 non-clonal supernatant 01N04A
# B6: 75110_01J17A (antibody, V domains shown)
# VH: B2 VH with A40G, G55D, K75E, Y100D, S101Y
# VL: B1 VL with T5A, G30Y, S31I, T32S, F53S, S77T, Y92F, L97F, I107F
# notes: Tested as non-clonal AlivaMab Mouse hybridoma supernatant (human variable regions and human kappa, mouse Fc); also called ADS75110 non-clonal supernatant 01J17A
# B7: 75110_04F22A (antibody, V domains shown)
# VH: B2 VH with M34I, S101Y
# VL: B1 VL with G30Y, T32S, F53S, Y92F, S94T, L97F
# notes: Tested as non-clonal AlivaMab Mouse hybridoma supernatant (human variable regions and human kappa, mouse Fc); also called ADS75110 non-clonal supernatant 04F22A
# B8: 75110_01K10A (antibody, V domains shown)
# VH: B2 VH with G10A, S30R, S31N, Y100D, S101Y
# VL: B1 VL with G9D, V29L, G30S, T32V, F53S, S66T, L97F
# notes: Tested as non-clonal AlivaMab Mouse hybridoma supernatant (human variable regions and human kappa, mouse Fc); also called ADS75110 non-clonal supernatant 01K10A
# B9: 75110_07E04A (antibody, V domains shown)
# VH: B2 VH with A24V, N76K, S77F, S101Y
# VL: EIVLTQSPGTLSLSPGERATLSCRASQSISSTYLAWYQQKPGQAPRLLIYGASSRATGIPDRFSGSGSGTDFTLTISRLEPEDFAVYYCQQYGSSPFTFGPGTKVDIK
# notes: Tested as non-clonal AlivaMab Mouse hybridoma supernatant (human variable regions and human kappa, mouse Fc); also called ADS75110 non-clonal supernatant 07E04A
# B10: 75110_05K11A (antibody, V domains shown)
# VH: B2 VH with A40P, G61A, Y100F, S101Y
# VL: B1 VL with A19V, G30S, S31N, F53S, A85V, Y92H, L97F
# notes: Tested as non-clonal AlivaMab Mouse hybridoma supernatant (human variable regions and human kappa, mouse Fc); also called ADS75110 non-clonal supernatant 05K11A
# B11: 75110_03C01A (antibody, V domains shown)
# VH: QVQLQQWGAGLLKPSETLSLTCAVYGGSFSGYYWSWIRQSPGKGLEWIGEINQSGSTNYNPSLKSRVTISVDTSKDQFSLKLSSVTAADTAVYYCARVINWFDSWGQGSLVTVSS
# VL: DIQMTQSPSSVSASVGDRVTITCRASQGISSWLAWYQQKPGNAPKLLIYDASSFQSGVPSRFSGSGSGTDFTLTISSLQTEDFATYYCQQANSFPYTFGQGTKLEIK
# notes: Tested here as non-clonal hybridoma supernatant from AlivaMab Mouse Kappa mice (detected with anti-mouse Fc and anti-human kappa)
# B12: 75110_04P08A (antibody, V domains shown)
# VH: B11 VH with F29L, K81R, S83T, A96T, I99L, S104P, Q107R, S109T
# VL: B11 VL with I21L, G28D, S31N, N42K, D50A, F54L
# notes: as for B11
# B13: 75110_03L12A (antibody, V domains shown)
# VH: B11 VH with S40P, Q53H, K75E, D76N, K81T, S83I, A96V, V98L, S104P, S109T
# VL: B11 VL with G28D, S31N, N42K, Y49F, D50A, F54L, T80P, E81D, K103N, E105G
# notes: as for B11
# B14: 75110_05B13A (antibody, V domains shown)
# VH: QVLLEQWGAGLLKPSETLSLTCAVYGGSFSGYYWTWIRQPPGKGLEWIGEINHRGSTNYNPSLKSRVTISIDTSKNQFSLKVKSVTAADTAMYYCTRPDSNWFDPWGQGTLVTVSS
# VL: B11 VL with G28D, S31N, N42K, Y49F, D50A, F54L, T80P, Y96L, Q100G, L104V
# notes: as for B11
# B15: 75110_02E08A (antibody, V domains shown)
# VH: QVQLQESGPGLVKPSETLSLTCTVSGGSISTYYWTWIRQPAGKGLEWIGRVYTSGDTNYNPSLKSRVAMSLDTSKNQFSLKLSSVTAADTAVYYCARDSGALYSWNYGDAFDIWGQGTMVTVSS
# VL: DIQMTQSPSAMSASVGDRVTITCRASQDISNYLAWFQQKPGKVPKRLIYAASSLQSGVPSRFSGSGSGTEFTLTISSLQPEDFATYYCLQHNSYPRTFGQGTKVEIK
# notes: as for B11
# Target: T1, Recombinant human CD4 (R&D Systems, Cat. 10327-CD) (human, UniProt P01730 26-390, limits assumed)
# T1 construct: Bought protein; also called huCD4
# Assay: BLI (Octet Red 384), non-clonal supernatant captured on AMC sensors, 100 nM human CD4, 1:1 local fit;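 further: hybridoma antibodies from supernatants, one CD4 concentration giving single-point kinetics per supernatant, with curves fitted over both association and dissociation phases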
# Experimental: (§1) Binding kinetics for nonclonal hybridoma supernatants were screened in high throughput against a single concentration of recombinant human CD4 protein (100 nM). Supernatants were diluted 1:3 in kinetics buffer. […] AMC sensors were used to capture hybridoma antibodies from supernatants.
# (§2) After completion of the kinetic characterization assays, data was analyzed in FORTE BIO analysis software v11. The Y-axis was aligned to the final 5 seconds of the baseline step, with inter-step alignment to the dissociation step. Savitzky-Golay Filtering was used to smooth the data. Kinetic curves were fit to both association and dissociation steps using a 1:1 stoichiometry model. A local fitting was used to calculate single point kinetics for each supernatant for human CD4.
Binder,Kd,koff,kon
B1,0.95 nM,7.1e-05 s⁻¹,74000 M⁻¹ s⁻¹
B2,2.9 nM,0.00065 s⁻¹,230000 M⁻¹ s⁻¹
B3,5.3 nM,0.00025 s⁻¹,47000 M⁻¹ s⁻¹
B4,< 0.001 nM,< 1e-07 s⁻¹,12000 M⁻¹ s⁻¹
B5,2.2 nM,4.8e-05 s⁻¹,22000 M⁻¹ s⁻¹
B6,< 0.001 nM,< 1e-07 s⁻¹,37000 M⁻¹ s⁻¹
B7,< 0.001 nM,< 1e-07 s⁻¹,15000 M⁻¹ s⁻¹
B8,340 nM,0.00042 s⁻¹,1200 M⁻¹ s⁻¹
B9,11000 nM,0.013 s⁻¹,1200 M⁻¹ s⁻¹
B10,< 0.001 nM,< 1e-07 s⁻¹,12000 M⁻¹ s⁻¹

# Target: T1, Recombinant human CD4 (R&D Systems, …)
# Assay: BLI (Octet Red 384), non-clonal supernatant captured on AMC sensors, 100 nM human CD4
# Experimental: as §1, §2
row,Binder,Response
1,B1,0.15
2,B2,0.08
3,B3,0.04
4,B4,0.06
5,B5,0.06
6,B6,0.06
7,B7,0.05
8,B8,0.03
9,B9,0.01
10,B10,0.05

# Target: T2, human CD4 on the surface of SKW3 cells or human PBMCs (human, UniProt P01730 26-458)
# T2 construct: whole, on cells; SKW3 CD4 knockout cells served as the negative cell line; also called hCD4; SKW3 WT
# Assay: FACS primary screen, non-clonal hybridoma supernatant, SKW3 vs SKW3 CD4 KO cells, anti-mouse Fc A647
# Experimental: (§3) FACS cell binding. αCD4 antibody producing hybridomas were identified by cell surface CD4 binding using FACS. For primary screening SKW3 (human T-ALL) was used as the CD4 positive cell line and SKW3 CD4 knockout (KO) as the negative cell line, respectively. SKW3 KO cells were labeled with Tag-it Violet (BioLegend) at RT for 15 min. After removing extra dye by washing cells with FACS buffer (1% BSA/1 mM EDTA/0.05% NaN3 in PBS) equal number of SKW3 and labeled SKW3 CD4 KO cells were combined, washed, and resuspended in FACS buffer at 8E6 cells/6 mL. […] Cells (˜20K/15 μL/well) were added to the supernatant and incubated at 4° C. for 30 minutes. […] Cells were washed twice before acquired by IQUE3 Flow Cytometer and analyzed with FORECYT software (Sartorius). Positive wells were selected with the following criteria: Over 2-fold selective binding to SKW3 cell line relative to SKW3 CD4 KO with over 10% signal above background binding with anti-human Kappa. Hybridomas from primary screening positive wells were transferred to 96 well plates.
row,Binder,SKW3 WT vs KO anti-mFc-647
1,B11,8 ratio
2,B12,8.4 ratio
3,B13,4.2 ratio
4,B14,3.1 ratio
5,B15,8.4 ratio

# Target: T2, human CD4 on the surface of SKW3 cells …
# Assay: FACS binning on SKW3 cells; competitor OKT4-Alexa Fluor 488 (its signal read); background 2163, max binding 8200
# Experimental: (§4) αCD4 containing hybridoma supernatants were binned against three comparator antibodies by FACS using SKW3 cells, which endogenously express human CD4 protein. Briefly, SKW3 cells were incubated with saturated hybridoma supernatant for 30 minutes at 4° C.
row,Binder,OKT4 A488 signal
1,B11,9510
2,B12,9760
3,B13,9750
4,B14,9670
5,B15,3320

# Target: T2, human CD4 on the surface of SKW3 cells …
# Assay: FACS binning on SKW3 cells; competitor RPA-T4-PE-Dazzle 594 (its signal read); background 783, max binding 15000
# Experimental: as §4
row,Binder,RPA-T4-PE-Dazzle 594 signal
1,B11,19200
2,B12,19900
3,B13,20700
4,B14,20300
5,B15,13500

# Target: T3, huCD4-HIS (human, UniProt P01730 26-390, limits assumed)
# T3 construct: not shown: HIS tag
# Assay: ELISA binning; competitor ibalizumab; 100 ng/mL huCD4-HIS, anti-HIS HRP detection; background 45, max binding 3000000
row,Binder,Ibalizumab ELISA binning signal
1,B11,865000
2,B12,1.57e+06
3,B13,885000
4,B14,1.03e+06
5,B15,335000

# Target: T2, human CD4 on the surface of SKW3 cells …
# Assay: FACS confirmation, supernatant on SKW3 WT cells, anti-human kappa FITC; background gMFI 2500
row,Binder,"SKW3 WT anti-hu Kappa FITC, gMFI"
1,B11,5920 gMFI
2,B12,7420 gMFI
3,B13,8010 gMFI
4,B14,7310 gMFI
5,B15,7260 gMFI

# Target: T2, human CD4 on the surface of SKW3 cells …
# Assay: FACS confirmation, supernatant on human PBMCs, anti-mouse Fc A647
# Experimental: (§5) FACS Confirmation screens were performed for primary screening positive hybridomas using human PBMCs in addition to SKW3/SKW3 CD4 KO cell lines. PBMCs were thawed and resuspended to 8E6/mL in FACS buffer. […] PBMCs were added to the 96 well plates (25 μL/well) and incubated at 4° C. for 30 minutes. […] Cells were washed twice before acquired by IQUE3 Flow Cytometer and analyzed with FORECYT software (Sartorius). Primary parameter used to assess confirmation was CD4 positive percent of viable cells. […] SKW3 gMFI binding was used as secondary parameter to assess confirmation.
row,Binder,"PBMCs, anti-mFc 647 CD4+ Percent Bound of Viable"
1,B11,28%
2,B12,28%
3,B13,28%
4,B14,27%
5,B15,31%

# Target: T2, human CD4 on the surface of SKW3 cells …
# Assay: FACS confirmation, supernatant on SKW3 WT cells, anti-mouse Fc A647; background gMFI 3300
# Experimental: as §5
row,Binder,"SKW3 WT anti-mFc 647, gMFI"
1,B11,18700 gMFI
2,B12,25300 gMFI
3,B13,27300 gMFI
4,B14,26000 gMFI
5,B15,30900 gMFI

# Target: T2, human CD4 on the surface of SKW3 cells …
# Assay: FACS binning on SKW3 cells; competitor OKT4a, anti-human A647 secondary (its signal read); background 5000, max binding 35000
# Experimental: as §4
row,Binder,OKT4a anti-hu A647 Secondary signal
1,B11,6980
2,B12,6060
3,B13,5720
4,B14,5340
5,B15,41500

# Target: T2, human CD4 on the surface of SKW3 cells …
# Assay: FACS confirmation, supernatant on human PBMCs, anti-mouse Fc A647, CD4+ gate
# Experimental: as §5
row,Binder,"PBMCs, anti-mFc 647 CD4+ gate - RL1 Binding"
1,B11,266000
2,B12,260000
3,B13,229000
4,B14,228000
5,B15,317000

# Target: T2, human CD4 on the surface of SKW3 cells …
# Assay: FACS primary screen, non-clonal hybridoma supernatant, SKW3 vs SKW3 CD4 KO cells, anti-human kappa FITC
# Experimental: as §3
row,Binder,SKW3 WT vs KO anti-hKappa-FITC
1,B11,2.4 ratio
2,B12,3 ratio
3,B13,2.5 ratio
4,B14,2.4 ratio
5,B15,3.1 ratio
